# Test results from publication PMC5465079.
# Assays:
# Test in all cases: SEC; purified enzymes that were not crosslinked, on Superdex 200; native mass estimated from the elution
# [1] = biological target: ADHR (Lactobacillus kefiri DSM 20587)
# [2] = biological target: SCR1 (Candida parapsilosis CCTCC M203011)
# [3] = biological target: SCR3 (Candida parapsilosis CCTCC M203011)
# [4] = biological target: wild-type (S)-carbonyl reductase II (Candida parapsilosis CCTCC M203011)
substance,measurement,setting,value
ADHR (enzyme),stoichiometry N,[1],4
SCR1 (enzyme),stoichiometry N,[2],4
SCR3 (enzyme),stoichiometry N,[3],4
wild-type (S)-carbonyl reductase II (enzyme),stoichiometry N,[4],4
